# Results taken from patent US20150166606A1 (RA PHARMACEUTICALS, published 2015).
# Numbered stars: 1 amine (or outer) side, 2 acyl side, 3 side chain; on linkers, the order of the positions; unused ones are H or OH. Bridge positions count the residues as written; N and C are the ends. Square brackets hold non-standard residues; d marks the D form. Ends that are not written are not given here. * marks the point of attachment. mXylyl = xylyl linker from dibromoxylene joining the two cysteines; Phe(3-CH2NH2) = O=C([C@H](Cc1cccc(CN[*:3])c1)N[*:1])[*:2]; Ala(1H-tetrazol-5-yl) = N[C@@H](Cc1nnn[nH]1)C(=O)O; des‑NH2 = missing amino-terminal amine group; Phe(4-CH2NH2) = NCc1ccc(C[C@H](N)C(=O)O)cc1; hexyltetrazolyl‑mXylyl = not defined here; η‑ω‑MeR = eta-omega methylated arginine; pXylylene = c1cc(C[*:2])ccc1C[*:1]; NMeE = CN[C@@H](CCC(=O)O)C(=O)O; Gly(cPr) = N[C@H](C(=O)O)C1CC1; dPhg = N[C@@H](C(=O)O)c1ccccc1; Chg = N[C@H](C(=O)O)C1CCCCC1; Pen = CC(C)(S)[C@H](N)C(=O)O; Phg = N[C@H](C(=O)O)c1ccccc1; Tle = CC(C)(C)[C@H](N)C(=O)O; hLys = NCCCCC[C@H](N)C(=O)O; oXylyl = ortho-xylyl linker; mLutidine = meta-lutidine; Heptanoyl = CCCCCCC(=O)*; Nle = CCCC[C@H](N)C(=O)O; Nva = CCC[C@H](N)C(=O)O; Mpa = O=C(O)CCS; Sar = CNCC(=O)O
# Molecular target: Activated human plasma kallikrein (Enzyme Research Laboratories, HPKa 1303) (human, UniProt P03952 20-638)
# Sequence (P03952 20-638 limits assumed): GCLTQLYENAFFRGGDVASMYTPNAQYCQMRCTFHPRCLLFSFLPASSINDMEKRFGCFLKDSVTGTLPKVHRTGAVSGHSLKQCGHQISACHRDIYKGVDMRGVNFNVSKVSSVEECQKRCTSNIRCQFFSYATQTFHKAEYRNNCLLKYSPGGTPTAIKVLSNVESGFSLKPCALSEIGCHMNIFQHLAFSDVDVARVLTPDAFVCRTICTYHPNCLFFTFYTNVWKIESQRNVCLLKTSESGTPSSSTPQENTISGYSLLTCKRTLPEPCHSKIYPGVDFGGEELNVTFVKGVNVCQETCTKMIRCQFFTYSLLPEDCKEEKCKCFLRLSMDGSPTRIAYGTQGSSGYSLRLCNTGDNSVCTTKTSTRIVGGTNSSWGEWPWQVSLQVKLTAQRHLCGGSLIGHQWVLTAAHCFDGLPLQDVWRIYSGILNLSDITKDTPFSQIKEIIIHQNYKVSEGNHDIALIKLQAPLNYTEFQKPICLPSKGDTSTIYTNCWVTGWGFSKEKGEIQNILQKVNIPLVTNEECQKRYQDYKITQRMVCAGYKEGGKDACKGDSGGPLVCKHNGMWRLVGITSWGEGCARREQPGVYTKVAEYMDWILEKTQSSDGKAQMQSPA
# Assay: cell-based or functional assay
row,Binder,Avg. IC50
1,[Nva]CESIC[Phe(4-CH2NH2)]V-NH2 (linker 2-6 via mXylyl) [R2021],2000 nM
2,MCESICRV-NH2 (linker 2-6 via 3‑methoxy‑mXylyl) [R2102],39.7 nM
3,"Heptanoyl-CAS[Phg]CR[Tle]-NH2 (linker 1-5 via mXylyl; not fully specified (residue 2); printed as [mXylyl(1,5)]Heptanoyl-C-a-S-Phg-C-R-Tbg-NH2) [R2067]",19.1 nM
4,Ac-CAP[Phg]CR[Tle]-NH2 (linker 1-5 via mXylyl) [R2058],29.5 nM
5,MCETICRVLKYSD-NH2 (linker 2-6 via mXylyl) [R2005],1.8 nM
6,"{des‑NH2}-CICRV-NH2 (linker 1-3 via mXylyl; not fully specified (residue 1); printed as [mXylyl(1,3)](des-NH2)C-ICRV-NH2) [R2049]",16300 nM
7,MCESICRV-NH2 (linker 2-6 via pXylylene) [R2043],617 nM
8,Ac-CAS[Phg]C[Phe(4-CH2NH2)][Tle]-NH2 (linker 1-5 via mXylyl) [R2053],5340 nM
9,Ac-CAS[Tle]CR[Tle]-NH2 (linker 1-5 via mXylyl) [R2048],1400 nM
10,Ac-CESICRVLRYS-NH2 (linker 1-5 via mXylyl) [R2056],1.9 nM
11,Ac-CA[Sar][Phg]CR[Tle]-NH2 (linker 1-5 via mXylyl) [R2052],74.2 nM
12,Ac-CESICRVLR-NH2 (linker 1-5 via mXylyl) [R2046],59.3 nM
13,[Nva]CESIC[hLys]V-NH2 (linker 2-6 via mXylyl) [R2029],8840 nM
14,Ac-CESICRVLK-NH2 (linker 1-5 via mXylyl) [R2038],299 nM
15,[Mpa][code a]S[Phg]CR[Tle]-NH2 (linker 1-5 via mXylyl) [R2064],14.9 nM
16,"Ac-CASVCRV-NH2 (linker 1-5 via mXylyl; not fully specified (residue 2); printed as [mXylyl(1,5)]Ac-C-a-SVCRV-NH2) [R2063]",151 nM
17,Ac-CESICRVLRYSE-NH2 (linker 1-5 via mXylyl) [R2057],0.943 nM
18,"MC[NMeE]ESICRV-NH2 (linker 2-7 via mXylyl; not fully specified; printed as [mXylyl(2,6)]MC-nMeE-ESICRV-NH2) [R2027]",990 nM
19,Ac-C[dA]S[dPhg]CR[Tle]-NH2 (linker 1-5 via mXylyl) [R2060],959 nM
20,[Nva][Pen]ESICRV-NH2 (linker 2-6 via mXylyl) [R2031],1460 nM
21,Ac-CESICRVLRY-NH2 (linker 1-5 via mXylyl) [R2055],2.2 nM
22,Ac-CASFCR[Tle]-NH2 (linker 1-5 via mXylyl) [R2059],425 nM
23,Ac-C[Nle]S[Phg]CR[Tle]-NH2 (linker 1-5 via mXylyl) [R2065],6.1 nM
24,MCEAICRV-NH2 (linker 2-6 via mXylyl) [R2018],37.3 nM
25,MCASICRV-NH2 (linker 2-6 via mXylyl) [R2024],41.9 nM
26,Ac-[Nva]CESIC[hLys]V-NH2 (linker 2-6 via mXylyl) [R2033],8650 nM
27,MCESACRV-NH2 (linker 2-6 via mXylyl) [R2017],2140 nM
28,MCESICRV-NH2 (linker 2-6 via trans‑butenyl) [R2011],12800 nM
29,Ac-CESICRVL-NH2 (linker 1-5 via mXylyl) [R2045],187 nM

# Results, then the binder that gave them:
row,Avg. IC50,Binder
1,733 nM,MCESICKV-NH2 (linker 2-6 via mXylyl) [R2040]
2,11.9 nM,CAS[Phg]CR[Tle]-NH2 (linker 1-5 via mXylyl) [R2039]
3,12.7 nM,"Ac-CAS[Phg]CR[Tle]-NH2 (linker 1-5 via mXylyl; not fully specified (residue 2); printed as [mXylyl(1,5)]Ac-C-a-S-Phg-CR-Tbg-NH2) [R2061]"
4,5000 nM,Ac-[Nva]CESIC[η‑ω‑MeR]V-NH2 (linker 2-6 via mXylyl) [R2054]
5,21000 nM,[Nva]CESIC[Phe(3-CH2NH2)]V-NH2 (linker 2-6 via mXylyl) [R2022]
6,4370 nM,"Heptanoyl-CAS[dPhg]CR[Tle]-NH2 (linker 1-5 via mXylyl; not fully specified (residue 2); printed as [mXylyl(1,5)]Heptanoyl-C-a-S-(D)Phg-C-R-Tbg-NH2) [R2066]"
7,2000 nM,MCESICRV-NH2 (cysteine pairing not given here) [R2007]
8,13 nM,MC[Ala(1H-tetrazol-5-yl)]SICRV-NH2 (linker 2-6 via mXylyl) [R2020]
9,714 nM,"MCESICRV-NH2 (linker 2-6 via hexyltetrazolyl‑mXylyl; reading uncertain; also: printed as [hexyltetrazolyl-mXylyl(2,6)]MCESICRV-NH2) [R2028]"
10,> 100000 nM,[Nva][Pen]ESI[Pen]RV-NH2 (linker 2-6 via mXylyl) [R2034]
11,11 nM,Ac-MCES[Chg]CRV-NH2 (linker 2-6 via mXylyl) [R2050]
12,6.8 nM,[Nva]CES[Phg]CR[Tle]-NH2 (linker 2-6 via mXylyl) [R2013]
13,9.5 nM,ACESICRV-NH2 (linker 2-6 via mXylyl) [R2025]
14,7200 nM,[Nva]CESICRF-NH2 (linker 2-6 via mXylyl) [R2035]
15,3190 nM,MCESICRV-NH2 (linker 2-6 via oXylyl) [R2042]
16,645 nM,MCESICRV-NH2 (linker 2-6 via mLutidine) [R2044]
17,37.5 nM,MCESICRVN-NH2 (linker 2-6 via mXylyl) [R2014]
18,2470 nM,"Ac-CAS[Gly(cPr)]CRV-NH2 (linker 1-5 via mXylyl; not fully specified (residue 2); printed as [mXylyl(1,5)]Ac-C-a-S-Cppg-CRV-NH2) [R2062]"
19,16500 nM,MCESICR-NH2 (linker 2-6 via mXylyl) [R2015]
20,3900 nM,MCESICRA-NH2 (linker 2-6 via mXylyl) [R2016]
21,1030 nM,[Nva]CESI[Pen]RV-NH2 (linker 2-6 via mXylyl) [R2032]
22,410 nM,Ac-CSICRV-NH2 (linker 1-4 via mXylyl) [R2037]
